# According to publication PMC3368898:
# Legend:
# Assay in all cases: […]; 10 mM Tris pH 7.4, 150 mM NaCl, 1 mM EDTA
# [1] = molecular target: PfC domain of EPclA (residues 363-426) after removal of thioredoxin by thrombin
# [2] = molecular target: PfN–PCoil fragment of EPclA (residues 1-250)
# [3] = molecular target: Col–PfC fragment, endogenous proteolytic fragment of rEPclA with only the Col and PfC domains (Escherichia coli O157:H7 strain RIMD 0509952 (Sakai))
# [4] = molecular target: Trx–PfC, PfC domain of EPclA (residues 363-426) fused to thioredoxin
substance,measurement,setting,value
PfC domain of EPclA (residues 363-426) after removal of thioredoxin by thrombin (domain or fragment),stoichiometry N,[1],3
PfN–PCoil fragment of EPclA (residues 1-250) (domain or fragment),stoichiometry N,[2],3
"Col–PfC fragment, endogenous proteolytic fragment of rEPclA with only the Col and PfC domains (domain or fragment)",stoichiometry N,[3],3
"Trx–PfC, PfC domain of EPclA (residues 363-426) fused to thioredoxin (domain or fragment)",stoichiometry N,[4],3
